Laboratory results: patent US20050282743A1, “Molecular interactions in cells” (Arbor Vita Corporation, priority 2001, published 2005)

Legend:
Assay in all cases: G assay titration, PDZ 5 ug/ml
[1] = target: GST-TAX IP2 PDZ domain 1 [GST: P08515]
[2] = target: T1, GST-KIAA1526 PDZ domain 1 (Homo sapiens (Human)), Q9P202
T1 chain: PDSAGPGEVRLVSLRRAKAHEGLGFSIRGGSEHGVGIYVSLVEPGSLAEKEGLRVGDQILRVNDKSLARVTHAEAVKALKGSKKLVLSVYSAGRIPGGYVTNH

[3] = target: T2, GST-MINT1 PDZ domain 2 (Mus musculus (Mouse)), B2RUJ5
T2 chain: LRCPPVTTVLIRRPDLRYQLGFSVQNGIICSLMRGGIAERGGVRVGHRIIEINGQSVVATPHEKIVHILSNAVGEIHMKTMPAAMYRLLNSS

[4] = target: T3, GST-SITAC-18 PDZ domain 2 (Homo sapiens (Human)), Q9H190
T3 chain: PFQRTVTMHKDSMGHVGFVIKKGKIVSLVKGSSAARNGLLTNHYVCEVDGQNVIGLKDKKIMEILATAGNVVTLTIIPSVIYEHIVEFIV

[5] = target: T4, GST-ZO-1 PDZ domain 1 (Rattus norvegicus (Rat)), A0A0G2
T4 chain: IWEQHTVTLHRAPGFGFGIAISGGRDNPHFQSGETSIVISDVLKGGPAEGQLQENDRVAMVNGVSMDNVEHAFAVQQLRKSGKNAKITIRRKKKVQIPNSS

[6] = target: T5, GST-MUPP1 PDZ domain 7 (Homo sapiens (Human)), O75970
T5 chain: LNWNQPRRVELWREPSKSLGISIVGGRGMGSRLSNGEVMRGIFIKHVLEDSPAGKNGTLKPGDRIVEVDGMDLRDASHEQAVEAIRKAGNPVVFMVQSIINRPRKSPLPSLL

[7] = target: T6, GST-MINT1 PDZ domains 1, 2, Q02410
T6 chain: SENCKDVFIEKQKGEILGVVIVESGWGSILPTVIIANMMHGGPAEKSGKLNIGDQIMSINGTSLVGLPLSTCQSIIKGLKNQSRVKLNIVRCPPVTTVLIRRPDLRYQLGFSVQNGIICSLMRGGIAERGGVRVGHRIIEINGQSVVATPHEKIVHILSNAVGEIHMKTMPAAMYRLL

[8] = target: T7, GST-FLJ00011 PDZ domain 1 (Homo sapiens (Human)), Q9H5P4
T7 chain: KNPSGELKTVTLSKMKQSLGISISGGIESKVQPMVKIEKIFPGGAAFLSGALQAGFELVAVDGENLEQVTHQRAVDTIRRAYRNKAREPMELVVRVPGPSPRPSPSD

[9] = target: T8, GST-TIP1 PDZ domain 1 (Table 9 insert) (Homo sapiens (Human)), O14907
T8 chain: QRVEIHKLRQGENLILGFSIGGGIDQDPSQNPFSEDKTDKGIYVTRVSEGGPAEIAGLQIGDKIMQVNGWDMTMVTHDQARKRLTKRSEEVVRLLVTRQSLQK

[10] = target: GST-Atrophin-1 Interacting Protein PDZ domain 3 (Rattus norvegicus (Rat)), O88382
Chain of GST-Atrophin-1 Interacting Protein PDZ domain 3 (Rattus norvegicus (Rat)), O88382 (O88382 774-865, tags or fused parts left off): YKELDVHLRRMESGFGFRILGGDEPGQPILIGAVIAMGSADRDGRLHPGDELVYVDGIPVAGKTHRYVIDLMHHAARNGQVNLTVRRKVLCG

[11] = target: T9, GST-Connector Enhancer PDZ domain 1 (Homo sapiens (Human)), Q969H4
T9 chain: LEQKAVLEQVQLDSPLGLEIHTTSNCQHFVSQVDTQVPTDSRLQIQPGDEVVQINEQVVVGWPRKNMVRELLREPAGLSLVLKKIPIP

[12] = target: T10, GST-FLJ 10324 PDZ domain 1 [GST: P08515]
T10 chain: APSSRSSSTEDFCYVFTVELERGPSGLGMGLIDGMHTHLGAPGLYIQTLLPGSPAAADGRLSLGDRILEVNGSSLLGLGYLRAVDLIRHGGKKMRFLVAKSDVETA

[13] = target: T11, GST-HEMBA 1003117 PDZ domain 1 (Homo sapiens (Human)), Q96JH8
T11 chain: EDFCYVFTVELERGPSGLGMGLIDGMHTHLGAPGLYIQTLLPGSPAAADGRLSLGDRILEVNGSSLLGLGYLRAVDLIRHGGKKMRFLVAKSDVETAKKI

[14] = target: GST-KIAA1634 PDZ domain 4 (Homo sapiens (Human)), Q5TCQ9
Chain of GST-KIAA1634 PDZ domain 4 (Homo sapiens (Human)), Q5TCQ9 (Q5TCQ9 844-945): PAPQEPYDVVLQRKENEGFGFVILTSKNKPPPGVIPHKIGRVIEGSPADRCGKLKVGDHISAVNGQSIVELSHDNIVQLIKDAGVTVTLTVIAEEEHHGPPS

[15] = target: T12, GST-MUPP1 PDZ domain 11 (Homo sapiens (Human)), O75970
T12 chain: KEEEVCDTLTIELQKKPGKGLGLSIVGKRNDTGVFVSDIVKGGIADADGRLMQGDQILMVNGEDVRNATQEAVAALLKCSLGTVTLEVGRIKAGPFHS

[16] = target: T13, GST-NeDLG PDZ domain 2 (Rattus norvegicus (Rat)), Q62936
T13 chain: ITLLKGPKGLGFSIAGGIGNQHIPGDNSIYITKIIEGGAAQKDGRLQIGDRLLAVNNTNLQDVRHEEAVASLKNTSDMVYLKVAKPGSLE

[17] = target: GST-PSD95 PDZ domain 1 (Homo sapiens)
[18] = target: T14, GST-PTPL1 PDZ domain 2 (Homo sapiens (Human)), Q12923
T14 chain: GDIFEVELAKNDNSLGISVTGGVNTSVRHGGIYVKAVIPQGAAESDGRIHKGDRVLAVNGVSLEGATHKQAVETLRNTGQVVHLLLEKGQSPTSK

Chain of GST-TAX IP2 PDZ domain 1 [GST: P08515] (P08515 whole entry, the tested form may be a part): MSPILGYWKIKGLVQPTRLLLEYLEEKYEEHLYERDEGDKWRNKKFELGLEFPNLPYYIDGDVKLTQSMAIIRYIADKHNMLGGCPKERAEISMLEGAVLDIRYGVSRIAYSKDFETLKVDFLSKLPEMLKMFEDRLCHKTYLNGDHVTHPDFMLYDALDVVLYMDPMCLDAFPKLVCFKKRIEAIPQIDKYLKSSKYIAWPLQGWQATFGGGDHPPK

VPGALDYAAFSSALYGESDL (modifications not checked) [a-actinin 2]
Kd [1]: 2500 nM

ILNSIQVMRAQMNQIQSVEV (modifications not checked) [ephrin B2]
Kd [2]: 5000 nM | Kd [3]: 3000 nM | Kd [4]: 5000 nM | Kd [5]: 6000 nM

KTMPAAMYRLLTAQEQPVYI (modifications not checked) [MINT-1]
Kd [6]: 1500 nM

PIPAGGCTFSGIFPTLTSPL (modifications not checked) [KIA 1481]
Kd [7]: 800 nM

AWDDSARAAGGQGLHVTAL (modifications not checked) [LPAP]
Kd [8]: 1500 nM | Kd [9]: 5000 nM

VGTLLLERVIFPSVKIATLV (modifications not checked) [AdenoE4 typ9]
Kd [10]: 100 nM | Kd [11]: 100 nM | Kd [12]: 100 nM | Kd [13]: 300 nM | Kd [14]: 200 nM | Kd [15]: 100 nM | Kd [16]: 100 nM | Kd [17]: 100 nM | Kd [18]: 200 nM
